# Test results reported in a protein production outcome set (Wang et al. 2014).
# Assay: label from the status in PepcDB records
row,Sequence,protein production
1,SNSIGLRQSVSDKGIEIVNLLAPKVEMLGFDLLGAEYLLVPSGAILRLYIDIPFAMQPECMVSIDDCERVSREVSAYLDLEEPISGNYTLEVSSP,failed
2,SPESLYLLWGPQMQFFFNDAYRPVLGPRLANALGQTIQTLWADAWPDVQPMVEQAFLGYSCRHEDLPVNMQRYPGEELTWWSFSMSPVYDEDDEQVLGVLCHTVETTDRVLLARHARQTEAH,failed
3,SPFIRANTAWLGHLEFAYDLVRFEKPEILVELGTHMGASFFSFCQGVKDGGLATKCFAVDTWTGDGHTGPYGEGVFHIVDKVVKTSYPNIGNLIKSTFDEAVDQFQDGTINLLHIDGYHTYEAVSHDYKTWLPKLADNGIVLFHDIEVKDRNFGVYKFWDEVKAKYPHFQFQHSYGLGVLFPKGCSDRFKEILKNKEEIQDMYK,failed
4,SRSKQKSRRRCFQCQTKLELVQQELGSCRCGYVFCMLHRLPEQHDCTFDHMGRG,not failed
5,SSAEAGGGIRKRHRTKFTAEQKERMLALAERIGWRIQRQDDEVIQRFCQETGVPRQVLKVWLHNNKH,not failed
6,SSDASKVTSKGAGLSKAFVGQKSSFLVDCSKAGSNMLLIGVHGPTTPCEEVSMKHVGNQQYNVTYVVKERGDYVLAVKWGEEHIPGSPFHVTVP,not failed
7,SSGNHIFKGRAAGIAVNENGKGLITENVIRENQWGGVDIRRGGIPVLRSNLICFGYSDGVVVGDEGKGLIEGNTIYANKGCGVWMMSSSLPHVTSNHVSYNGLYGVAVFSQKDGSSELPRGHRAQENFSEDGDAILWETELEKEDDPLRRPITIALVESNSINHNGASGLYVQSSEALHVITNVIHANGDRGITVAQSSQPTRVANNSISCNRQSGVKVEAQCKVELRGNGIYDNRGHGIITKGDSTIVIENDIIGNRGSGLQLLPRSDTKVIKNRIHSFRAYGIAVRGRAKALVQENIIFQGKTSKTIFQQISNNRECIMQNNKFLVFKKKSDTWR,not failed
8,SSISRANKKKPSMPNVSNDLSQKLYATMEKHKEVFFVIHLHAGPVINTLPPIVDPDPLLSCDLMDGRDAFLTLARDKHWEFSSLRRSKWSTLCMLVELHTQ,failed
9,SSLLDGLASSPRAPLQSSKARMKKLPKKSQNEKYRLKYLRLRKAAKATVFENAAICDEIARLEEKFLKAKEERRYLLKKLLQLQALTEGEVQAAAPSHSSSLPLTYGVASSVGTIQGAGPISGPSTGAEEPFGKKTKKEKKEKGKENNKLEVLKKTCKKKKMAGGARKLVQPIALDPSGRPVFPIGLGGLTVYSLGEIITDRPGFHDESAIYPVGYCSTRIYASMKCPDQKCLYTCQIKDGGVQPQFEIVPEDDPQNAIVSSSADACHAELLRTISTTMGKLMPNLLPAGADFFGFSHPAIHNLIQSCPGARKCINYQWVKFDVCKPGDGQLPEGLPENDAAMSFEAFQRQIFDEDQNDPLLPGSLDLPELQPAAFVSSYQPMYLTHEPLVDTHLQHLKSPSQGSPIQSSD,not failed
10,SSQGFIFNLSRPMFQDRRVRQALSLLWDFEWTNRQMMRNMYIRQDSYFSNSELAASQLPTPAELKILEPLRGTVPKEVFDTVFKTPKTDGTGLIRDKQLQALALMKEAGWTPKGDELVNAQGEPFSFTFLNAQSGFERMLLPYKRTLAQIGIHFDIRRIDSAQYLNRVMARDYDMIVTGYPVSTSPGAELYNSFGSKVAMDPGSSNYMALQDPAVDTLIAGLVKADNKQTMTDYAHCLDRVLQWNYYWIPNYYPP,failed
11,SSQRYMQILQIMPEAIFIHDNGKCNFINDKAIKLLEVKDVKDIIGKNIVDFIHEDYKELAQARIDKTMKTGMPCDFIEERLVTAMGKKIIIEAATTTFSHNNGTFITIIRDMT,failed
12,STTTTTKKPHVLVIPFPQSGHMVPHLDLTHQILLRGATVTVLVTPKNSSYLDALRSLHSPEHFKTLILPFPSHPCIPSGVESLQQLPLEAIVHMFDALSRLHDPLVDFLSRQPPSDLPDAILGSSFLSPWINKVADAFSIKSISFLPINAHSISVMWAQEDRSFFNDLETATTESYGLVINSFYDLEPEFVETVKTRFLNHHRIWTVGPLLPFKAGVDRGGQSSIPPAKVSAWLDSCPEDNSVVYVGFGSQIRLTAEQTAALAAALEKSSVRFIWAVRDAAKKVNSSDNSVEEDVIPAGFEERVKEKGLVIRGWAPQTMILEHRAVGSYLTHLGWGSVLEGMVGGVMLLAWPMQADHFFNTTLIVDKLRAAVRVGENRDSVPDSDKLARILAESAREDLPERVTLMKLREKAMEAIKEGGSSYKNLDELVAEMCL,failed
13,SVATQHLFARQKNTQLTLHVAHSFCSQWLMPRLADFHRQHPDVVVKISTTANTVPNASAIADVEIINGYGDWQSEQAVQLTQEN,failed
14,SVDDDLYFIPKKKAEKKEEVKQEVKVVVPQKQNTTTVYAAPGSTVVVKDVKGKVRDVDEYNRRYTSRDNNFSMENDTLYIEEKPLNERGEWVNGFEGSQDDYEYAMRIVRFRNPRYAIPVSSPLYWDVVYGLPSWDWNVYDDGLYAYVFPTYTNRLWWDWRWNYPYGASWGFSWGWSSPWYYNSWYYPGYWGGGYWGGYWGYHHHHHHHYYPHYSGHGWGGGYWGGGHGWYGSSRRNPGIHAGRYTNSYGSSRPSRNNYVNSYDRNSRNSYVGNSRQNVRNSANSYRTATRNGSSSGRVVSGSDGVNSVRPNRSAIRTRTGATLSPSQAAGVRPGNSYSRPTEGRGSSYTRPSS,failed
15,SVFPQQTGQLAELQPQDRAGARASWMPMFQRRRRRDTHFPICIFCCGCCHRSKCGMCCKT,failed
16,SVPKRQRIRKLQIRNIPPHLQWEVLDSLLVQYGVVESCEQVNTDSETAVVNVTYSSKDQARQALDKLNGFQLENFTLKVAYIPDEMAAQ,not failed

row,Sequence,protein production
1,SWNQAPKLHYCLDYDCQKAELFVTRLEAVTSNHDGGCDCYVQGSVANRTGSVEAQTALKKRQLHTTWEEGLVLPLAEEELPTATLTLTLRTCDRFSRHSVAGELRLGLDGTSVPLGAAQWGELKT,not failed
2,SWSDLFRKCTTDEEQEMLQFLIDNKDSEILRAFVSERSILLHEEYLKWESYMTRRAKFHRLAADFAMFLSILTSLIVIFCLVYSMYQLFKTPDEHSAYDPSTRPKPKTQEVKTLKIRTE,not failed
3,SYLPKHESVTLKNGLQVVSVPLENKTGVIEVDVLYKVGSRNETMGKSGIAHMLEHLNFKSTKNLKAGEFDKIVKRFGGVSNASTSFDITRYFIKTSQANLDKSLELFAETMGSLNLKEDEFLPERQVVAEERRWRTDNSPIGMLYFRFFNTAYVYHPYHWTPIGFMDDIQNWTLKDIKKFHSLYYQPKNAIVLVVGDVNSQKVFELSKKHFESLKN,failed
4,SYNYNIKRRIAEKAAELVQDNDTIMIESGSTCALLAEVLCQTKRNIKVITNSCFIANYIRQYSSCQIILLGGYYQPNSEVTVGPLLKEMISLFHVNRVFVGTDGFNKDLGFMGKDMMRSEGVRYMADAAEEVVILTDSSKFSKTSLVHQLSLADVNRVITDQALDKQTQELLSASGLVLDFVS,failed
5,SYVQDYRSPFIASVSDQHGVVYITENKNKTVVIPCLGSISNLNVSLCARYPEKRFVPDGNRISWDSKKGFTIPSYMISYAGMVFCEAKINDESYQSIMYIVVVVGYRIYDVVLSPSHGIELSVGEKLVLNCTARTELNVGIDFNWEYPSSKHQHKKLVNRDLKTQSGSEMKKFLSTLTIDGVTRSDQGLYTCAASSGLMTKKNSTFVRVHEKPFVAFGSG,not failed
6,TAMRVSPHHPAPTPNPRASLNHSTAFNPQPQSQMQDTRQIQPSPPWSYDQSYQYLGSIASPSVHPATPISPGRASGMTTLSAELSSRLSTAPDLTAFSDPRQFPALPSISDP,failed
7,TDSTGIDLHEFLVNTLKKNPRDRMMLLKLEQEILEFINDNNNQFKKFPQMTSYHRMLLHRVAAYFGMDHNVDQTGKAVIINKTSNTRIPEQRFSEHIKDEKNTEFQQRFIL,not failed
8,TEKTALHLRARRNFRDFRGVSRRTGEEWLVTVQDTEAHVPDVHEEVLGVVPITTLGPHNYCVILDPVGPDGKNQLGQKRVVKGEKSFFLQPGEQLEQGIQDVYVLSEQQGLLLRALQPLEEGEDEEKVSHQAGDHWLIRGPLEYVPSAKVEVVEERQAIPLDENEGIYVQDVKTGKVRAVIGSTYMLTQDEVLWEKELPPGVEELLNKGQDPLADRGEKDTAKSLQPLAPRNKTRVVSYRVPHNAAVQVYDYREKRARVVFGPELVSLGPEEQFTVLSLSAGRPKRPHARRALCLLLGPDFFTDVITIETADHARLQLQLAYNWHFEVNDRKDPQETAKLFSVPDFVGDACKAIASRVRGAVASVTFDDFHKNSARIIRTAVFGFETSEAKGPDGMALPRPRDQAVFPQNGLVVSSVDVQSVEPVDQRTRDALQRSVQLAIEITTNSQEAAAKHEAQRLEQEARGRLERQKILDQS,failed
9,TIADVQSSRDLRNLPINQVGIKDLRFPITLQTAEGIQSTIARLTMTVYLPAEQKGTHMSRFVALMEQHAEALDFAQLRKLTTEMVALLDSRAGKISVSFPFFRKKTAPVSGIRSLLDYDVCLTGEIKDGAYGHSMKVMIPVTSLCPCSKEISQYGAHNQRSHVTVSLTADAEVGIEEVIDYVEAQASCQLYGLLKRPDEKYVTEKAYENPKFVEDMVRDVATSLIADKRIKSFVVESENFESIHNHSAYAYIAYP,not failed
10,TKDFNLNVSATYNFNKNNIDELDGGKDIYYNSGWGSSAQHPSYDYVLSEGKPVGVIRGFKSAGFYTVDDFDYVDGVYKLKAGIPDISTAATGTYRRPSELQVADGQIAFPGALKLQDVDKSGIVDLDDVVDLGEVQAKHTGGFSLNGNYKNIDFGANFTYQIGGKVYNVATMSQLSGGKETGLGLNKYKDLAGAFQLYDIQNGNLVPVIEPTALKQLNANAKYALPYYEDAPILSDYVEDASYLRLNTLTVGYTLPKAWTTKAYMQKVRIYVTGGNLFCITGYSGLDPEVNSDPDKAKSYPTLGLDWGAYMRARTFTVGLNVEF,failed
11,TLHKERRIGRLSVLLLLNEAEESTQVEELERDGWKVCLGKVGSMDAHKVVAAIETASKKSGVIQSEGYRESHALYHATMEALHGVTRGEMLLGSLLRTVGLRFAVLRGNPYESEAEGDWIAVSLYGTIGAPIKGLEHETFGVGINHI,not failed
12,TLRKARVKGLFLLSSGLQFSQSDHHPGGIPLAVIRHMSRQLKRNRTDTLTSFYEQMFSESEKSHGLDQAFLQTLEAGDPFYHWQNESLIAGLDYLANVQLLQGWPTVSVPITWIHGSDDTICPSPASGLFSPSKRLIIVEGAGHVPFYTQDSVVINAWEELLGN,failed
13,TPEHRAVAREVAAETFVLLKNENHLLPLEEKGKIALIGPMADARNNMCGMWSMTCTPSRHGTLLEGIRSAVGDKAEILYAKGSNVYYDAEMEKGAVGIRPLERGNDQQLLAEALRTAARADVIVAAVGECAEMSGESPSRTNLEIPDAQQDLLKALVKTGKPVVLLLFTGRPLILNWESEHIPSILNVWFGGSETGDAVADVLFGKAVPCGKLTTTFPRSVGQLPLFYNHLNTGRPDPDNRVFNRYASNYLDESNEPLYPFGYGLSYTDF,not failed
14,TQKKVEVETLEQKIIRADRELAELLEIDEGDEVNYRVVYLRANGEIYAKAISFTPLKRLENSFREDLMRADIPIGKIMRKHNIEARREIRWSRVEEADLALAKELGIADRRVISRNYNIIHRGKVLINITEFFPMERFR,failed
15,TSAGWVSVAIGPLPLRCWWSPPAGCRRDIDNISIENRAYIVLPEVFGVNAWVRSVADRLAAQGIPALAVPLFARTAPELELAYESCDLAQGRAHKDATTASQILSDVSAAVAWLQQRCPNAAIDLAGFCFGGHAALLAATLPQIRHSFDFYGAGVSRMRPGGGAPSLELLPQVSGQLTCVCGSADPLIPEEDRTTIRSALAAADPSGKRMSYIEIDGVDHGFMCEARGSFDADASALGWQLMLA,failed
